To fix the notation:
B1: TRIM55 (parent)
chain: ICPICLEMFTKPVVILPCQHNLCR
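Further: lentivirally expressed fusions sorted by FACS into six bins by GFP to DsRed ratio, PSI derived from sequencing read proportions per bin multiplied by bin number.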

In this data set the parent is B1. Kind of data set: protein stability index of a GFP-peptide fusion (GPS, HEK-293T) (PSI 1-6); higher = more stable. The following applies: c terminus: a fixed tail appended.
Consider ICPICLEMFTKPVAILPCQHNLCR [V14A], for which the protein stability index was 2.56.

Turning to ICPICLEMFTKPVDILPCQHNLCR [V14D], the protein stability index stood at 3.31.

As to ICPICLEMFTKPVIILPCQHNLCR [V14I], the protein stability index is 2.4.

As for ICPICLEMFTKPVYILPCQHNLCR [V14Y], the protein stability index came out at 2.15.

Consider ICPICLEMFTKPVTILPCQHNLCR [V14T], for which the protein stability index came to 2.63.

ICPICLEMFTKPVWILPCQHNLCR [V14W]: the protein stability index turned out to be 1.89.

For the variant ICPICLEMFTKPVPILPCQHNLCR [V14P], the protein stability index is 2.56.

As to ICPICLEMFTKPVLILPCQHNLCR [V14L], the protein stability index turned out to be 2.29.

For the variant ICPICLEMFTKPVQILPCQHNLCR [V14Q], the protein stability index was 2.59.

In the case of ICPICLEMFTKPVHILPCQHNLCR [V14H], the protein stability index was determined as 2.82.

Consider ICPICLEMFTKPVMILPCQHNLCR [V14M], for which the protein stability index turned out to be 2.98.

As for ICPICLEMFTKPVGILPCQHNLCR [V14G], the protein stability index came out at 2.54.

Regarding ICPICLEMFTKPVRILPCQHNLCR [V14R], the protein stability index was determined as 2.47.

On to ICPICLEMFTKPVSILPCQHNLCR [V14S], for which the protein stability index was 3.12.

Regarding ICPICLEMFTKPVNILPCQHNLCR [V14N], the protein stability index turned out to be 2.93.

Turning to ICPICLEMFTKPVFILPCQHNLCR [V14F], the protein stability index turned out to be 2.49.

With ICPICLEMFTKPVKILPCQHNLCR [V14K], the protein stability index was found to be 2.33.

Take ICPICLEMFTKPVCILPCQHNLCR [V14C]: the protein stability index is 2.32.

Turning to ICPICLEMFTKPRVILPCQHNLCR [V13R], the protein stability index turned out to be 2.19.

As for ICPICLEMFTKPQVILPCQHNLCR [V13Q], the protein stability index came to 3.49.

Consider ICPICLEMFTKPNVILPCQHNLCR [V13N], for which the protein stability index is 2.92.

As to ICPICLEMFTKPGVILPCQHNLCR [V13G], the protein stability index is 2.84.

In the case of ICPICLEMFTKPKVILPCQHNLCR [V13K], the protein stability index was 2.15.

With ICPICLEMFTKPAVILPCQHNLCR [V13A], the protein stability index worked out at 2.37.

Take ICPICLEMFTKPLVILPCQHNLCR [V13L]: the protein stability index is 2.26.

Regarding ICPICLEMFTKPTVILPCQHNLCR [V13T], the protein stability index is 2.62.

As to ICPICLEMFTKPDVILPCQHNLCR [V13D], the protein stability index came out at 3.31.

For ICPICLEMFTKPEVILPCQHNLCR [V13E], the protein stability index amounted to 2.61.

Turning to ICPICLEMFTKPFVILPCQHNLCR [V13F], the protein stability index stood at 2.31.

Regarding ICPICLEMFTKPHVILPCQHNLCR [V13H], the protein stability index amounted to 2.63.

In the case of ICPICLEMFTKPMVILPCQHNLCR [V13M], the protein stability index was determined as 2.33.

As for ICPICLEMFTKPCVILPCQHNLCR [V13C], the protein stability index was 2.21.

Take ICPICLEMFTKPWVILPCQHNLCR [V13W]: the protein stability index was determined as 1.89.

With ICPICLEMFTKPIVILPCQHNLCR [V13I], the protein stability index was 2.11.

Turning to ICPICLEMFTKPPVILPCQHNLCR [V13P], the protein stability index was determined as 2.23.

On to ICPICLEMFTKPYVILPCQHNLCR [V13Y], for which the protein stability index amounted to 1.99.

Take ICPICLEMFTKPSVILPCQHNLCR [V13S]: the protein stability index turned out to be 2.58.

Regarding ICPICLEMFTKPVVILPGQHNLCR [C18G], the protein stability index is 2.26.

As for ICPICLEMFTKPVVILPMQHNLCR [C18M], the protein stability index worked out at 2.16.

Regarding ICPICLEMFTKPVVILPEQHNLCR [C18E], the protein stability index was determined as 2.48.

For the variant ICPICLEMFTKPVVILPHQHNLCR [C18H], the protein stability index came out at 2.27.

With ICPICLEMFTKPVVILPYQHNLCR [C18Y], the protein stability index is 1.79.

With ICPICLEMFTKPVVILPAQHNLCR [C18A], the protein stability index stood at 1.75.

Regarding ICPICLEMFTKPVVILPSQHNLCR [C18S], the protein stability index was determined as 2.23.

Regarding ICPICLEMFTKPVVILPWQHNLCR [C18W], the protein stability index turned out to be 1.95.

With ICPICLEMFTKPVVILPFQHNLCR [C18F], the protein stability index was determined as 1.89.

Turning to ICPICLEMFTKPVVILPRQHNLCR [C18R], the protein stability index stood at 1.45.

In the case of ICPICLEMFTKPVVILPTQHNLCR [C18T], the protein stability index stood at 1.98.

For the variant ICPICLEMFTKPVVILPKQHNLCR [C18K], the protein stability index is 1.89.

As for ICPICLEMFTKPVVILPLQHNLCR [C18L], the protein stability index is 1.77.

ICPICLEMFTKPVVILPDQHNLCR [C18D]: the protein stability index was found to be 2.53.

In the case of ICPICLEMFTKPVVILPNQHNLCR [C18N], the protein stability index was determined as 1.81.

Take ICPICLEMFTKPVVILPIQHNLCR [C18I]: the protein stability index came to 2.02.

With ICPICLEMFTKPVVILPVQHNLCR [C18V], the protein stability index was determined as 1.91.

As to ICPICLEMFTKPVVILPPQHNLCR [C18P], the protein stability index was found to be 2.11.

In the case of ICPICLEMFTKPVVILPQQHNLCR [C18Q], the protein stability index is 2.19.

With ICPICLEMFTRPVVILPCQHNLCR [K11R], the protein stability index is 1.87.

For the variant ICPICLEMFTQPVVILPCQHNLCR [K11Q], the protein stability index stood at 2.6.

Take ICPICLEMFTGPVVILPCQHNLCR [K11G]: the protein stability index came to 2.56.

With ICPICLEMFTFPVVILPCQHNLCR [K11F], the protein stability index was determined as 2.2.

Regarding ICPICLEMFTYPVVILPCQHNLCR [K11Y], the protein stability index is 1.69.

For the variant ICPICLEMFTMPVVILPCQHNLCR [K11M], the protein stability index was determined as 1.94.

Take ICPICLEMFTTPVVILPCQHNLCR [K11T]: the protein stability index worked out at 2.26.

As for ICPICLEMFTLPVVILPCQHNLCR [K11L], the protein stability index came out at 1.9.

Consider ICPICLEMFTNPVVILPCQHNLCR [K11N], for which the protein stability index worked out at 2.32.

ICPICLEMFTWPVVILPCQHNLCR [K11W]: the protein stability index turned out to be 1.93.

With ICPICLEMFTDPVVILPCQHNLCR [K11D], the protein stability index worked out at 3.28.

Turning to ICPICLEMFTAPVVILPCQHNLCR [K11A], the protein stability index turned out to be 3.04.

Regarding ICPICLEMFTEPVVILPCQHNLCR [K11E], the protein stability index was found to be 2.83.

For ICPICLEMFTPPVVILPCQHNLCR [K11P], the protein stability index stood at 2.35.

For ICPICLEMFTVPVVILPCQHNLCR [K11V], the protein stability index amounted to 1.98.

On to ICPICLEMFTHPVVILPCQHNLCR [K11H], for which the protein stability index worked out at 2.4.

Consider ICPICLEMFTCPVVILPCQHNLCR [K11C], for which the protein stability index was determined as 2.51.

As for ICPICLEMFTIPVVILPCQHNLCR [K11I], the protein stability index came out at 2.29.

Regarding ICPICLEMFTSPVVILPCQHNLCR [K11S], the protein stability index amounted to 2.67.

As to ICPICLEMFTKSVVILPCQHNLCR [P12S], the protein stability index stood at 2.59.

Consider ICPICLEMFTKDVVILPCQHNLCR [P12D], for which the protein stability index is 2.61.

In the case of ICPICLEMFTKVVVILPCQHNLCR [P12V], the protein stability index was 2.29.

For ICPICLEMFTKHVVILPCQHNLCR [P12H], the protein stability index was determined as 2.04.

Consider ICPICLEMFTKQVVILPCQHNLCR [P12Q], for which the protein stability index came to 2.43.

As to ICPICLEMFTKWVVILPCQHNLCR [P12W], the protein stability index was determined as 1.97.

With ICPICLEMFTKFVVILPCQHNLCR [P12F], the protein stability index worked out at 1.55.

Consider ICPICLEMFTKIVVILPCQHNLCR [P12I], for which the protein stability index was 2.23.

Take ICPICLEMFTKRVVILPCQHNLCR [P12R]: the protein stability index stood at 2.05.

On to ICPICLEMFTKMVVILPCQHNLCR [P12M], for which the protein stability index stood at 2.25.

Consider ICPICLEMFTKEVVILPCQHNLCR [P12E], for which the protein stability index was 2.55.

Regarding ICPICLEMFTKGVVILPCQHNLCR [P12G], the protein stability index stood at 2.25.

For ICPICLEMFTKAVVILPCQHNLCR [P12A], the protein stability index came to 2.19.

As for ICPICLEMFTKLVVILPCQHNLCR [P12L], the protein stability index turned out to be 2.02.

Consider ICPICLEMFTKNVVILPCQHNLCR [P12N], for which the protein stability index is 2.99.

As to ICPICLEMFTKYVVILPCQHNLCR [P12Y], the protein stability index amounted to 1.8.

For ICPICLEMFTKCVVILPCQHNLCR [P12C], the protein stability index came to 2.42.

For the variant ICPICLEMFTKTVVILPCQHNLCR [P12T], the protein stability index is 2.34.

In the case of ICPICLEMFTKKVVILPCQHNLCR [P12K], the protein stability index came to 2.5.
